The text below walks through data of PMC11555649, “Yop1 stability and membrane curvature generation propensity are controlled by its oligomerisation interface” (Biochemical Journal, 2024).

Data set [1] deals with the molecule itself. Kind of data set: SEC-MALS; self-association; 100 µl at 1-1.4 mg/ml on Superdex 200 10/300GL; 20 mM HEPES pH 7.5, 150 mM NaCl, 5% glycerol; protein in DDM micelles, protein and detergent masses separated. On the technique in general: In gel filtration, larger molecules generally elute earlier.
Data set [2] deals with the molecule itself. As to the kind of experiment: native gel or EMSA; Blue native PAGE, NativePAGE 4-16% Bis-Tris gel, ~0.8 mg/ml protein in DDM micelles, 150 V, 4°C; self-association. For orientation: A gel shift assay detects complexes by their altered migration in electrophoresis.

B1: Yop1 (wildtype, full length, Saccharomyces cerevisiae) (natural protein, UniProt Q12402 1-180, looked up)
chain: MSEYASSIHSQMKQFDTKYSGNRILQQLENKTNLPKSYLVAGLGFAYLLLIFINVGGVGEILSNFAGFVLPAYLSLVALKTPTSTDDTQLLTYWIVFSFLSVIEFWSKAILYLIPFYWFLKTVFLIYIALPQTGGARMIYQKIVAPLTDRYILRDVSKTEKDEIRASVNEASKATGASVH
notes: Yop1, Saccharomyces cerevisiae, UniProt Q12402, full length gene in pCold I; Integral membrane protein, kept in DDM detergent micelles; tags removed with TEV protease; also called WT; wildtype Yop1; source: E. coli C43, purified (Strep-Tactin, TEV cleavage, His-tag resin flow-through, SEC) in DDM; not shown: (His)9, N-terminal, cleaved; Twin-Strep-tag, N-terminal, cleaved
On to B1, for which the “stoichiometry N” value in data set [1] amounted to 2.

B2: Yop1 S75F variant (natural protein, Saccharomyces cerevisiae, UniProt Q12402 1-180, looked up)
chain: MSEYASSIHSQMKQFDTKYSGNRILQQLENKTNLPKSYLVAGLGFAYLLLIFINVGGVGEILSNFAGFVLPAYLFLVALKTPTSTDDTQLLTYWIVFSFLSVIEFWSKAILYLIPFYWFLKTVFLIYIALPQTGGARMIYQKIVAPLTDRYILRDVSKTEKDEIRASVNEASKATGASVH
notes: Yop1, Saccharomyces cerevisiae, UniProt Q12402, full length gene in pCold I, with S75F; Homologous to the REEP1 SPG31 mutation S23F; source: E. coli C43, purified (Strep-Tactin, TEV cleavage, His-tag resin flow-through, SEC) in DDM; not shown: (His)9, N-terminal, cleaved; Twin-Strep-tag, N-terminal, cleaved
As for B2, the “stoichiometry N” value in data set [2] is 2.

B3: Yop1 A72E variant (natural protein, Saccharomyces cerevisiae, UniProt Q12402 1-180, looked up)
chain: MSEYASSIHSQMKQFDTKYSGNRILQQLENKTNLPKSYLVAGLGFAYLLLIFINVGGVGEILSNFAGFVLPEYLSLVALKTPTSTDDTQLLTYWIVFSFLSVIEFWSKAILYLIPFYWFLKTVFLIYIALPQTGGARMIYQKIVAPLTDRYILRDVSKTEKDEIRASVNEASKATGASVH
notes: Yop1, Saccharomyces cerevisiae, UniProt Q12402, full length gene in pCold I, with A72E; Homologous to the REEP1 SPG31 mutation A20E; source: E. coli C43, purified (Strep-Tactin, TEV cleavage, His-tag resin flow-through, SEC) in DDM; not shown: (His)9, N-terminal, cleaved; Twin-Strep-tag, N-terminal, cleaved
Take B3: in data set [1], the “stoichiometry N” value came to 2.

B4: Yop1 P71L variant (natural protein, Saccharomyces cerevisiae, UniProt Q12402 1-180, looked up)
chain: MSEYASSIHSQMKQFDTKYSGNRILQQLENKTNLPKSYLVAGLGFAYLLLIFINVGGVGEILSNFAGFVLLAYLSLVALKTPTSTDDTQLLTYWIVFSFLSVIEFWSKAILYLIPFYWFLKTVFLIYIALPQTGGARMIYQKIVAPLTDRYILRDVSKTEKDEIRASVNEASKATGASVH
notes: Yop1, Saccharomyces cerevisiae, UniProt Q12402, full length gene in pCold I, with P71L; Homologous to the REEP1 SPG31 mutation P19L; prone to aggregation in preparative SEC; source: E. coli C43, purified (Strep-Tactin, TEV cleavage, His-tag resin flow-through, SEC) in DDM; not shown: (His)9, N-terminal, cleaved; Twin-Strep-tag, N-terminal, cleaved
Consider B4, for which the “stoichiometry N” value in data set [2] is 2.

Usually stoichiometry N stands for the number of molecules, sites or subunits per partner or assembly.
